# According to patent US20260265389A1 (CANTAI THERAPEUTICS, published 2026):
# Positions count from the first letter of the chain named.
# T1: IL-23 heterodimer (IL-23α & IL-12β) (Homo sapiens (Human), UniProt Q9NPF7 20-189; P29460 23-328)
# T1 construct: also called heteromeric IL-23
# T1 sequence 1: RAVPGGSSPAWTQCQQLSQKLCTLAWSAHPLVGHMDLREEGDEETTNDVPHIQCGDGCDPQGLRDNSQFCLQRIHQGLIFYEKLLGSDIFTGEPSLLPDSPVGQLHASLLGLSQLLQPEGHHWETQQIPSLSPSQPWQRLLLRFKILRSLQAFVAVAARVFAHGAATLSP
# T1 sequence 2: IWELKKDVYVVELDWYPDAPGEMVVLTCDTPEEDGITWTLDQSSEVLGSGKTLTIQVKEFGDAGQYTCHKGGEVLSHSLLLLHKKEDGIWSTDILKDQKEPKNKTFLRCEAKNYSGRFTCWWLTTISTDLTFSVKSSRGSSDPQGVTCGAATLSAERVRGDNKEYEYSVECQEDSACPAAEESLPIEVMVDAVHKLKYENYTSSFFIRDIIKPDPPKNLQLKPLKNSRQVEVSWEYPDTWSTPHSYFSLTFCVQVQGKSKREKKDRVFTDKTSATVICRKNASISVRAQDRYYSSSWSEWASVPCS
# T2: biotinylated recombinant human TL1A (human, UniProt O95150 72-251, limits assumed, biotinylated (site not stated))
# T2 sequence: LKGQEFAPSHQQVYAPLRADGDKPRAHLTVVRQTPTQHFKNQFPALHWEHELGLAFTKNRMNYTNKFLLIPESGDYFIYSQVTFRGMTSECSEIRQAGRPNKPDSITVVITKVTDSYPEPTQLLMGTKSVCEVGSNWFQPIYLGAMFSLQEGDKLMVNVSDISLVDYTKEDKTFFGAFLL
# T3: monomeric TL1A (human, UniProt O95150 72-251, limits assumed)
# T3 construct: also called TL1A monomer
# T3 sequence: T2 sequence
# B1: bispecific antibody candidate II-1 (bispecific antibody, IgG1, V domains shown)
# VH 1: QVQLVQSGAEVKKPGSSVKVSCKASGGTFTIYAISWVRQAPGQGLEWMGGILPIFGTGHYVQKFQGRVTITADESTSTSYMELSSLRSEDTAVYYCAREPENWGQGTLVTVSS
# VH 2: QVQLQESGPGLVEPSGTLSLTCAVSGGSISSRNWWSWVRQPPGKGLEWIGEIYHSGSTNYNPSLKSRVTISVDKSKNQFSLNLNSVTAADTAVYYCARDNDILTGYFDGYFDYWGQGTLVTVSS
# VL: not shown
# notes: hIgG1, 1:1 knob-in-hole; also called 11-1; knob-in-hole bispecific antibody
# B2: bispecific antibody candidate II-2 (bispecific antibody, IgG1, V domains shown)
# VH 1: QVQLVQSGAEVKKPGASVKVSCTASGDAFTGDSIHWVRQAPGQGLEWMGWITPNSGGTSYAQRFQGRVTLTRDTSISTVYMDLRRLRSDDTAVYFCASGLTVPFDYWGQGTLVTVSS
# VH 2: B1 VH 2
# VL: not shown
# notes: hIgG1, 1:1 knob-in-hole; also called 11-2; knob-in-hole bispecific antibody
# B3: TL1A binding antibody candidate 6 of TABLE 47 (VH SEQ ID NO: 908, VL SEQ ID NO: 1768) (antibody, V domains shown)
# VH: B1 VH 2 with E13K, L83V
# VL: not shown
# notes: It was expressed in CHO cells and captured by an anti-human IgG-Fc antibody (human IgG Fc)
# B4: TL1A binding antibody candidate 7 of TABLE 47 (VH SEQ ID NO: 909, VL SEQ ID NO: 1768) (antibody, V domains shown)
# VH: B1 VH 2 with E13K, N84K
# VL: not shown
# notes: as for B3
# B5: TL1A binding antibody candidate 8 of TABLE 47 (VH SEQ ID NO: 933, VL SEQ ID NO: 1768) (antibody, V domains shown)
# VH: B1 VH 2
# VL: not shown
# notes: as for B3
# B6: TL1A binding antibody candidate 2 of TABLE 47 (VH SEQ ID NO: 903, VL SEQ ID NO: 1768) (antibody, V domains shown)
# VH: B1 VH 2 with E13K, T104D
# VL: not shown
# notes: as for B3
# B7: TL1A binding antibody candidate 1 of TABLE 47 (VH SEQ ID NO: 902, VL SEQ ID NO: 1768) (antibody, V domains shown)
# VH: B1 VH 2 with E13K, T69I
# VL: not shown
# notes: as for B3
# B8: TL1A binding antibody candidate 5 of TABLE 47 (VH SEQ ID NO: 907, VL SEQ ID NO: 1768) (antibody, V domains shown)
# VH: B1 VH 2 with E13K, S30T
# VL: not shown
# notes: as for B3
# Biological target: T1, IL-23 heterodimer (IL-23α & IL-12β)
# Test: BLI (Octet); how IL-23 was offered is not described
row,binding result,Binder
1,binds,B1
2,binds,B2

# Biological target: T2, biotinylated recombinant human TL1A
# Test: BLI (Octet); by Example 12 biotinylated recombinant human TL1A on streptavidin sensors, dipped into the bispecific antibody for 0-300 s; the sheet does not name the loaded protein or the antibody concentration
# Description: Kinetic determination and assessment of pH dependency was performed on Octet BLI platform. Briefly, knob-in-hole bispecific antibodies that were prepared according to method described in Example 10 were used for this assay. Briefly, biotinylated recombinant human TL1A was diluted to 7.5 nM in kinetics buffer (1×PBS pH 7.4, 0.1% BSA, 0.05% Tween20, 0.05% sodium azide) and loaded onto streptavidin sensors for a period of 5 minutes. Sensors were then baselined in kinetics buffer before being dipped into bispecific antibodies diluted to varying concentrations, with two-fold serial dilutions for a 5-minute association step, followed by a 15-minute dissociation step. Top concentrations were determined based on approximate KD determined during a scouting experiment. Referencing was performed using a loaded sensor that was dipped into buffer as opposed to antibody, as well as unloaded sensors dipped into antibody. Then, data was aligned and fitted.
row,binding result,Binder
1,binds,B1
2,binds,B2

# Biological target: T3, monomeric TL1A
# Test: SPR, antibody captured by anti-human IgG-Fc, TL1A monomer as analyte, pH 7.4; pH 7.4, monomeric TL1A as analyte
# Description: Binding kinetic assays were performed for determining pH dependent binding activity of a lead TL1A binding antibody candidate, as identified in Example 3, and 7 different variants thereof using surface plasma resonance (SPR) spectroscopy. Each TL1A binding candidate comprised a VH sequence that comprised at least one modification in CDR or framework region of variable region of the VH sequence. Briefly, an amine-coupled anti-human IgG-Fc specific polyclonal antibody was immobilized on a SPR sensor chip. All TL1A binding antibody candidates were expressed at 1 mL scale in chinese hamster ovary (CHO) cells for 6 days, and supernatant was cleared of cells by centrifugation. To form a captured antibody array, TL1A binding antibody candidates were batch diluted to approximately 1.7-13.3 nM (either after Protein A purification or directly from CHO supernatant) and injected onto the chip. Non-regenerative kinetics were measured by injecting TL1A monomer starting at a concentration of 2.57E-10 M, with 6-fold increase in concentration up to 3.33E-07 M at pH 7.4 and 5.8, respectively. Likewise, non-regenerative kinetics were also measured for TL1A trimer starting at a concentration of 2.57E-10 M, with 6-fold increase in concentration up to 3.33E-07 M at pH 7.4. Each analyte injection flowed over the array at […] for a 5-minute association phase, followed by a 10-minute buffer dissociation phase. Binding was detected and relative capture response units (RU) were collected for each antibody on the surface.
row,Kd,Binder
1,3.05 nM,B3
2,4.57 nM,B4
3,9.66 nM,B5
4,5.53 nM,B6
5,6.46 nM,B7
6,5.19 nM,B8
